According to IntAct's records for PubMed 19150989:

B1: BBSome complex member BBS1 (Homo sapiens), Q8NFJ9 (parent)
chain: MAAASSSDSDACGAESNEANSKWLDAHYDPMANIHTFSACLALADLHGDGEYKLVVGDLGPGGQQPRLKVLKGPLVMTESPLPALPAAAATFLMEQHEPRTPALALASGPCVYVYKNLRPYFKFSLPQLPPNPLEQDLWNQAKEDRIDPLTLKEMLESIRETAEEPLSIQSLRFLQLELSEMEAFVNQHKSNSIKRQTVITTMTTLKKNLADEDAVSCLVLGTENKELLVLDPEAFTILAKMSLPSVPVFLEVSGQFDVEFRLAAACRNGNIYILRRDSKHPKYCIELSAQPVGLIRVHKVLVVGSTQDSLHGFTHKGKKLWTVQMPAAILTMNLLEQHSRGLQAVMAGLANGEVRIYRDKALLNVIHTPDAVTSLCFGRYGREDNTLIMTTRGGGLIIKILKRTAVFVEGGSEVGPPPAQAMKLNVPRKTRLYVDQTLREREAGTAMHRAFQTDLYLLRLRAARAYLQALESSLSPLSTTAREPLKLHAVVQGLGPTFKLTLHLQNTSTTRPVLGLLVCFLYNEALYSLPRAFFKVPLLVPGLNYPLETFVESLSNKGISDIIKVLVLREGQSAPLLSAHVNMPGSEGLAAA

Variants of: B1
Details: with Lepr

Row | Variant | effect of a mutation on the interaction
1 | M390R | decreasing interaction
